We go through 42 variants from the Human Domainome abundance scans (Beltran et al. 2025).

B1: Cytoplasmic polyadenylation element-binding protein 2, residues 513 to 575; numbered along this chain, Q7Z5Q1 (parent)
chain: KRVEVKPYVLDDQMCDECQGARCGGKFAPFFCANVTCLQYYCEFCWANIHSRAGREFHKPLVK

± gives the uncertainty stated by the source.

In this series the parent is B1. The series is described as follows: abundance fitness (aPCA) (normalised: wild type 0, dead -1); higher = more abundant; growth selection in yeast, the domain comes from the species named. Conditions: Homo sapiens.
In the case of KRVEVKPYVLDDQMCDECQGARCGGKFAPFFCANVTCLQYYCEFCWANIHSRAGRVFHKPLVK [E56V], the abundance fitness was -0.373 ± 0.05.

For KRVEVKPYVLDDQMCDECQGARCGGKFAPFFCANVTCLQYYCEFCWANIHSRAGRAFHKPLVK [E56A], the abundance fitness is -0.357 ± 0.061. With KRVEVKPYVLDDQMCDECQGARCGGKFAPFFCANVTCLQYYCEFCWANIHSRAGRMFHKPLVK [E56M], the abundance fitness is -0.154 ± 0.052.

In the case of KRVEVKPYVLDDQMCDECQGARCGGKFAPFFCANVTCLQYYCEFCWANIHSRAGRDFHKPLVK [E56D], the abundance fitness was -0.035 ± 0.081. KRVEVKPYVLDDQMCDECQGARCGGKFAPFFCANVTCLQYYCEFCWANIHSRAGRSFHKPLVK [E56S]: the abundance fitness was -0.128 ± 0.044. For the variant KRVEVKPYVLDDQMCDECQGARCGGKFAPFFCANVTCLQYYCEFCWANIHSRAGRKFHKPLVK [E56K], the abundance fitness turned out to be 0.035 ± 0.066. Turning to KRVEVKPYVLDDQMCDECQGARCGGKFAPFFCANVTCLQYYCEFCWANIHSRAGRLFHKPLVK [E56L], the abundance fitness is -0.253 ± 0.043. Regarding KRVEVKPYVLDDQMCDECQGARCGGKFAPFFCANVTCLQYYCEFCWANIHSRAGRNFHKPLVK [E56N], the abundance fitness is -0.111 ± 0.088. With KRVEVKPYVLDDQMCDECQGARCGGKFAPFFCANVTCLQYYCEFCWANIHSRAGRQFHKPLVK [E56Q], the abundance fitness was -0.214 ± 0.08. KRVEVKPYVLDDQMCDECQGARCGGKFAPFFCANVTCLQYYCEFCWANIHSRAGRHFHKPLVK [E56H]: the abundance fitness is -0.158 ± 0.068. With KRVEVKPYVLDDQMCDECQGARCGGKFAPFFCANVTCLQYYCEFCWANIHSRAGRRFHKPLVK [E56R], the abundance fitness was -0.01 ± 0.037. As for KRVEVKPYVLDDQMCDECQGARCGGKFAPFFCANVTCLQYYCEFCWANIHSRAGRWFHKPLVK [E56W], the figure is -0.573 ± 0.057. For KRVEVKPYVLDDQMCDECQGARCGGKFAPFFCANVTCLQYYCEFCWANIHSRAGRYFHKPLVK [E56Y], the abundance fitness is -0.271 ± 0.091. Turning to KRVEVKPYVLDDQMCDECQGARCGGKFAPFFCANVTCLQYYCEFCWANIHSRAGRCFHKPLVK [E56C], the abundance fitness is -0.195 ± 0.056. As for KRVEVKPYVLDDQMCDECQGARCGGKFAPFFCANVTCLQYYCEFCWANIHSRAGRPFHKPLVK [E56P], the figure is -0.31 ± 0.054. Regarding KRVEVKPYVLDDQMCDECQGARCGGKFAPFFCANVTCLQYYCEFCWANIHSRAGRFFHKPLVK [E56F], the abundance fitness is -0.235 ± 0.057. As for KRVEVKPYVLDDQMCDECQGARCGGKFAPFFCANVTCLQYYCEFCWANIHSRAGREFHKGLVK [P60G], the abundance fitness is -0.341 ± 0.049. In the case of KRVEVKPYVLDDQMCDECQGARCGGKFAPFFCANVTCLQYYCEFCWANIHSRAGREFHKALVK [P60A], the abundance fitness is -0.051 ± 0.046. As for KRVEVKPYVLDDQMCDECQGARCGGKFAPFFCANVTCLQYYCEFCWANIHSRAGREFHKVLVK [P60V], the figure is -0.331 ± 0.049; as for KRVEVKPYVLDDQMCDECQGARCGGKFAPFFCANVTCLQYYCEFCWANIHSRAGREFHKHLVK [P60H], -0.226 ± 0.13; as for KRVEVKPYVLDDQMCDECQGARCGGKFAPFFCANVTCLQYYCEFCWANIHSRAGREFHKLLVK [P60L], -0.517 ± 0.048. Regarding KRVEVKPYVLDDQMCDECQGARCGGKFAPFFCANVTCLQYYCEFCWANIHSRAGREFHKCLVK [P60C], the abundance fitness is -0.154 ± 0.075. KRVEVKPYVLDDQMCDECQGARCGGKFAPFFCANVTCLQYYCEFCWANIHSRAGREFHKELVK [P60E]: the abundance fitness was -0.412 ± 0.072. With KRVEVKPYVLDDQMCDECQGARCGGKFAPFFCANVTCLQYYCEFCWANIHSRAGREFHKFLVK [P60F], the abundance fitness is -0.937 ± 0.21. Regarding KRVEVKPYVLDDQMCDECQGARCGGKFAPFFCANVTCLQYYCEFCWANIHSRAGREFHKNLVK [P60N], the abundance fitness was -0.057 ± 0.12. The same measure for KRVEVKPYVLDDQMCDECQGARCGGKFAPFFCANVTCLQYYCEFCWANIHSRAGREFHKQLVK [P60Q]: 0.051 ± 0.046; for KRVEVKPYVLDDQMCDECQGARCGGKFAPFFCANVTCLQYYCEFCWANIHSRAGREFHKMLVK [P60M]: -0.157 ± 0.064; for KRVEVKPYVLDDQMCDECQGARCGGKFAPFFCANVTCLQYYCEFCWANIHSRAGREFHKTLVK [P60T]: -0.558 ± 0.1. With KRVEVKPYVLDDQMCDECQGARCGGKFAPFFCANVTCLQYYCEFCWANIHSRAGREFHKRLVK [P60R], the abundance fitness is -0.052 ± 0.041. The same measure for KRVEVKPYVLDDQMCDECQGARCGGKFAPFFCANVTCLQYYCEFCWANIHSRAGTEFHKPLVK [R55T]: -0.165 ± 0.055. On to KRVEVKPYVLDDQMCDECQGARCGGKFAPFFCANVTCLQYYCEFCWANIHSRAGSEFHKPLVK [R55S], for which the abundance fitness was -0.041 ± 0.037. Take KRVEVKPYVLDDQMCDECQGARCGGKFAPFFCANVTCLQYYCEFCWANIHSRAGVEFHKPLVK [R55V]: the abundance fitness is -0.1 ± 0.046. As to KRVEVKPYVLDDQMCDECQGARCGGKFAPFFCANVTCLQYYCEFCWANIHSRAGYEFHKPLVK [R55Y], the abundance fitness came out at 0.211 ± 0.057.

Consider KRVEVKPYVLDDQMCDECQGARCGGKFAPFFCANVTCLQYYCEFCWANIHSRAGREFHFPLVK [K59F], for which the abundance fitness was -0.541 ± 0.089.

As for KRVEVKPYVLDDQMCDECQGARCGGKFAPFFCANVTCLQYYCEFCWANIHSRAGREFHCPLVK [K59C], the abundance fitness is -0.199 ± 0.05. Take KRVEVKPYVLDDQMCDECQGARCGGKFAPFFCANVTCLQYYCEFCWANIHSRAGREFHWPLVK [K59W]: the abundance fitness was -0.46 ± 0.047. KRVEVKPYVLDDQMCDECQGARCGGKFAPFFCANVTCLQYYCEFCWANIHSRAGREFHAPLVK [K59A]: the abundance fitness was -0.118 ± 0.053.

For KRVEVKPYVLDDQMCDECQGARCGGKFAPFFCANVTCLQYYCEFCWANIHSRAGREFHHPLVK [K59H], the abundance fitness was -0.226 ± 0.072. For the variant KRVEVKPYVLDDQMCDECQGARCGGKFAPFFCANVTCLQYYCEFCWANIHSRAGREFHDPLVK [K59D], the abundance fitness is -0.132 ± 0.069. Regarding KRVEVKPYVLDDQMCDECQGARCGGKFAPFFCANVTCLQYYCEFCWANIHSRAGREFHVPLVK [K59V], the abundance fitness is -0.2 ± 0.05. Consider KRVEVKPYVLDDQMCDECQGARCGGKFAPFFCANVTCLQYYCEFCWANIHSRAGREFHSPLVK [K59S], for which the abundance fitness is 0.021 ± 0.04. The same measure for KRVEVKPYVLDDQMCDECQGARCGGKFAPFFCANVTCLQYYCEFCWANIHSRAGREFHPPLVK [K59P]: -0.247 ± 0.06.
